According to a protein production outcome set (Wang et al. 2014):

Assay: label from the status in PepcDB records

Row | Sequence | protein production
1 | MNNNDLFQASRRRFLAQLGGLTVAGMLGPSLLTPRRATAAQAATDAVISKEGILTGSHWGAIRATVKDGRFVAAKPFELDKYPSKMIAGLPDHVHNAARIRYPMVRVDWLRKRHLSDTSQRGDNRFVRVSWDEALDMFYEELERVQKTHGPSALLTASGWQSTGMFHNASGMLAKAIALHGNSVGTGGDYSTGAAQVILPRVVGSMEVYEQQTSWPLVLQNSKTIVLWGSDLLKNQQANWWCPDHDVYEYYAQLKAKVAAGEIEVISIDPVVTSTHEYLGREHVKHIAVNPQTDVPLQLALAHTLYSENLYDKNFLANYCVGFEQFLPYLLGEKDGQPKDAAWAEKLTGIDAETIRGLARQMAANRTQIIAGWCVQRMQHGEQWAWMIVVLAAMLGQIGLPGGGFGFGWHYNGAGTPGRKGVILSGFSGSTSIPPVHDNSDYKGYSSTIPIARFIDAILEPGKVINWNGKSVKLPPLKMCIFAGTNPFHRHQQINRIIEGLRKLETVIAIDNQWTSTCRFADIVLPATTQFERNDLDQYGNHSNRGIIAMKQVVPPQFEARNDFDIFRELCRRFNREEAFTEGLDEMGWLKRIWQEGVQQGKGRGVHLPAFDDFWNNKEYVEFDHPQMFVRHQAFREDPDLEPLGTPSGLIEIYSKTIADMNYDDCQGHPMWFEKIERSHGGPGSQKYPLHLQSVHPDFRLHSQLCESETLRQQYTVAGKEPVFINPQDASARGIRNGDVVRVFNARGQVLAGAVVSDRYAPGVARIHEGAWYDPDKGGEPGALCKYGNPNVLTIDIGTSQLAQATSAHTTLVEIEKYNGTVEQVTAFNGPVEMVAQCEYVPASQVKS | failed
2 | MNNPQCSYTVRCFFLALLVNLFLPNILPRQLASAQDVPSEASSDAPDLGVVWTPSTAPDSALAALDRIAATGATAVRLTHLPADTTATTIATRADSLGLRLYVDLPMADGSAPRPDEARPQADASLDQLRSLANRHASITHVGLARGASTTGSRRCDRLRRWTERIHDASASLHTYYVTPFVPSADRCADAVDQPLLDLRGHPRPTDRWRAWRTRTDSVGIGALGTWTRPAAASGLRVPHSAERQARYLETTLSRLLDPTRAAPPVVFVARWQDDDASLLPSRRYGLHDAAGTPRPAATVVRGLYSGTQRTFAFPDGSAPAGTSGLVLVGWGLVAVLGLLYARSLFVRETAVRYFTTPGFYREALRDGREVSFGANSLLLGLVGGSLGVAAARMARLATAQPETERVLAALPRVVGTALAPGVEHPTLAGVAVGGGALVLLLLWTGAGVAMARLGTRFTVAQGLMLVTWPCWPVLLAPPVALAAGPNAPLSPSLSTLVLLGGGTLVLLSVTLRVLFDYWRVTDAPAWTLLPLAALSPLALVGASLLVAAQYGVSFSLLWRLAVYT | failed
3 | MNNRGAVTDMISQLPEPLILQILGSLPTKVAITTSVLSKQWQSHWKMMPKLEFDSFLRRLDLENVTKCLLSHKAPVLQTFSLKVRLDRRNNAVDIGCLIGIAMTRNVRKLVLEVYFHRGTFTFPRSLYHCETLETLELILNVVMDVPPSVYLKSLKTLYLLAVDFKDDESVINLLSGCPNLQDLVMRRNSSSNVKTFTIAVPSLQRLAIHNGSGTPQHCGYTINTPSLKYLKLEGSKAFESFMVENVSELIEVNITDVSEIIDEKLRVFLTSVTRLSLALSPSVFTFPTGIIFNQLVYLEICTNKTSWWKLLPLMLHSSPKLQVLKLIDDTDGMNYVEASGEWNQPKNVPECLHHLEKFIWEGYKWKREEIEVAKYILKNTNRLKRAIFSLKGISSEDRLVVVEDLKSVVMATTNSCQFQFI | failed
4 | MNNRVEILYCTQCRWLLRATWMTQELLTTFDQEIGELTLKPGTGGLFEVWVNGKRIWSRKEQGGFPEISELKRLVRDEVAPGRDLGHADQKGKTGASPAPAEP | failed
5 | MNNSVSSGYDVIGDVHGCASQLEVLLHKLGYETGASGEYRHPERQAIFVGDLIDRGGEQLRVLEVVKAMVDAGSALIVMGNHEFNALAYHTEWPVGSGKYLRPHDDPDNPWSAKNTKQHAAFLDQVRGEDRQRCLEWFATIPLWLDLGELRVVHACWHDDSIGVVENLCGSNAPFGDVSHLVAASTEDDPLYEAVETLLKGPEINLVAHGQPEYHDKDGIPRDNARVQWWNSDARTLRDIAEMGGGFTTSTGEPYPPLPEIALTGADRSYIYTAEIPVFYGHYWRQGSPKHRHDWTDYTACVDFSAVKGGRLTAYRWSGESTIKAENYVTAD | failed
6 | MNNTDCLLGRRKEINETAYANVLKKELVVYMKRKLMIFFIASVVTLLICSVAVLASGEDVHILINNNGIKFSIPPYVKDEEVFLPMREIFELYGFEVNWNGTERSAEAAKDGKIVKVKVGSNIVKLYGEDYNSKDDVFIFRDRIFISTDVIEAGLNIKVKWDKNKRTIYLNEYTNESITIVGNDNSVILGSNILVNISPRYDIDTVNKIIGENDEMLVEKNYTGAIRGYKELLKHISAKENPEEYIHVLINLGNAYVELASIVNREQNALEAILFYEEALKVDSIDKYPHKKALANRGMGSAYFILSTVRDVEKNTAKALEMFNEALNIFVKDGDQYNCGYLHYLKGRTYYWMAASTNTRDNIIKSLDSLEEALTTFNTENYKDEYIIARSCHGLVLTQFFNFSGEVEHLQRAFDAFNEVLDNITIEEKPILYASTYMQLASYYMYLANKDGDVESYYKCISCMQESLKVYTLDSDSYNYAVAYANIGKAYLLMSYLSQTNVNIDRALSAYEEALKVFKISQFPFNYASVQIDLGEAYTVKAGITGSEEDYNNAQNAFNNALKIYTLKNYPYQYAKTYSEFGKMYIALAYIKDKEENNKKAIECFNEALKVYSFEKYPVLYGYNQELIALSNIELSKIRDPKKHLNKSVEVCNNALKVFRKENIPYLYGVVNIYLGNSYTFLASIENTKENCIQAEKAYMNALEIFTKDASLTYYLEAMTGLAENYVIKSQVENRKENLEKAIAKCNDIIELLDRHRSSPYYGKAQYILLLSYLGLSDFENKEVNLNKALIANREAVSVFEEGNLVFDKSIALAAGANIYLKYSEVNNTVKNLTEAKRTVESALTYFKKENYPYQYAILMNSMGTIYQKLSEKENRIDNLKKSIEAYKEANEIFSIEEYGLYFAKTKHDMGDVYMKLAGSEDRKANIQKALECFSEAIRIYTNEDYPLIHEEIIKKMENIKK | failed
7 | MNNTGLSVKKVVAIGIGSAIYVILARFTSIPTPIPNTNIELVFPFLAFFASIYGATVGFSVGFIGHALSDFIMYGQTWWSWVLATGILGWIIGLAYKRLDLKNGIFGLKQIILFNIVQIIANILAWIVVAPIGDIIIYSEPANKVFVQGISATISNGISILIIGTILLKAYASTKIKKGSLRKED | failed
8 | MNNVTTTLTDTTWYKAGTITDVPENGGACAMIQGKQIAIFNFTRRDEWFATDNLCPHKQQMILSRGMIGDMSEEPKVACPFHKKSFSLKDGHCMSGDDYTIKTYPIKVEDGLIFIGLNE | failed
9 | MNPANGEVTSYWFPGTTSGILTRNGSMIHLLSITASVLHPDDPSLSERESVQVQQYRLSSLLAAVLLPVFGTLYSWADPQAVDPAWIRLALSGLLLGLFVGSYLSDRVCRNYVPLT | failed
10 | MNPDFLGALLIGLVGAGHCMGMCGGIASLLSLGSSSSKSSPTIPLFYNLGRLSSYALIGALVGGAISGLSELSGLAQSLAWLRFVAAIFMILVALYIAKWWQGLLIVEKMGQHLWKFISPAGKSLLPLKKPIHALPFGFVWGWLPCGLVYSALTWSAVSGSAVNGGLIMLAFGLGTLPSMLAVGYGASHFQKLQKSLIFRNISALILIVYGAYTAAGAMQMLGFI | failed
11 | MNPGAYAVPSSAQGWTGTESIGKSSAVNHHRDDGGQEMAGALRKMAVYLGLVEDDRYDHRYADEYDDFEDFDEPLDERPSRNRSPRDDSRNNAVTDSSDHSPSRNERRSPAPAPATADLARITTLHPRTYNEARTIGEHFREGIPVIMNLTEMVDSDAKRLVDFAAGLIFGLHGSIERVTNKVFLLSPANVEVTAEDKARIAERGFFNQS | failed
12 | MNPGGAEVSVVIPAWNAEATLGRALASVRAQTLAPRQVIVVNDGSSDATPEIAARMATKTFPVTVIDRTGRGSGPAAARNAGIAAAGEPFVAFLDADDVWLPDKLARQMAALRASPDAVLCCCDAQWVGEDAPARTAHPTIYEDRPIKGGAEAWKEILLDCYVGTPCVVARRAALIEAGGFDERLVVGEDQDLWIRLALQGPVIALPEVLVRYGLSADSHMARHRALAASLWLPHFEALVSGLGARLSAGERDAILRARLWRMARSVYLDGRKDLGLSLMARAVAHGLPRRARMVFLARARLRSALGRNGLEHHHHHH | failed
13 | MNPIILALFDVSIFILLAEILSSLVQKYGLPKLIGELLAGMIIGPYALGSLLNQLLGFPLIGINSYIEFLAEFSVILLIFASGLEHGIAPIKSSGILGFLGATFGALLPFFAAYYFYISSFGLDSALILGTAMGATSLAAVASIIEEGKLKGKGINFMVSSAAADDVVDLLLLSVVIAILQGESTSVTSISLKIIALVVIWVVILVVSIILIPKITDRISDKYIEEFPLAVLFGLTLLMVSLGYSPIISAFVAGVAFANSVKNSKIKEISSTLLSVFGPLFFVYIGAEVNFLTLNLNTVILSLELTAIATIFKWLGIFPFALAYLRNAKAANTVALGMVPRGETGLVIASLGLSYNALNQEEFEGIVFMSIFTTLIGSALFKIYAKKHLVS | failed
14 | MNPPSGPRVPPSPTQEPSCMATPAPPSWWDSSQSSISSLGRLPSISPTAPGTWAAAWVPLPTVDVPDHAHYTLGTVILLVGLTGMLGNLTVIYTFCRSRSLRTPANMFIINLAVSDFLMSFTQAPVFFTSSLYKQWLFGETGCEFYAFCGALFGISSMITLTAIALDRYLVITRPLATFGVASKRRAAFVLLGVWLYALAWSLPPFFGWSAYVPEGLLTSCSWDYMSFTPAVRAYTMLLCCFVFFLPLLIIIYCYIFIFRAIRETGRALQTFGACKGNGESLWQRQRLQSECKMAKIMLLVILLFVLSWAPYSAVALVAFAGYAHVLTPYMSSVPAVIAKASAIHNPIIYAITHPKYRVAIAQHLPCLGVLLGVSRRHSRPYPSYRSTHRSTLTSHTSNLSWISIRRRQESLGSESEVGWTHMEAAAVWGAAQQANGRSLYGQGLEDLEAKAPPRPQGHEAETPGKTKGLIPSQDPRM | failed
15 | MNPSHGRGLGSAGGSSSGRNQGGGGETVVEMFPSGLRVLVVDDDPTCLMILERMLRTCLYEVTKCNRAEMALSLLRKNKHGFDIVISDVHMPDMD | failed
